Laboratory results taken from patent US12351616B2, “Peptides and combination of peptides for use in immunotherapy against esophageal cancer and other cancers” (Immatics Biotechnologies GmbH, priority 2015, dated 2025).

Target: HLA-A*02:01 (Homo sapiens, UniProt P04439, D140Y/D185E/D98H/E176V/E277Q/G131W/G231S/I119V/I121R/I166T/I218V/L300P/L318F/N151K/N90K/P208A/P217A/Q86G/Q94H/R138H/R169H/T345S)
Assay: MHC binding assay: UV-ligand exchange with β2m ELISA
Details: peptide exchange yield, binding to HLA-A*02:01
Description: Candidate peptides for T cell based therapies according to the present invention were further tested for their MHC binding capacity (affinity). The individual peptide-MHC complexes were produced by UV-ligand exchange, where a UV-sensitive peptide is cleaved upon UV-irradiation, and exchanged with the peptide of interest as analyzed. Only peptide candidates that can effectively bind and stabilize the peptide-receptive MHC molecules prevent dissociation of the MHC complexes. To determine the yield of the exchange reaction, an ELISA was performed based on the detection of the light chain (β2m) of stabilized MHC complexes. The assay was performed as generally described in Rodenko et al. (Rodenko et al., 2006).
96 well MAXISorp plates (NUNC) were coated over night with 2 ug/ml streptavidin in PBS at room temperature, washed 4× and blocked for 1 h at 37° C. in 2% BSA containing blocking buffer. Refolded HLA-A*02:01/MLA-001 monomers served as standards, covering the range of 15-500 ng/ml. Peptide-MHC monomers of the UV-exchange reaction were diluted 100 fold in blocking buffer. Samples were incubated for 1 h at 37° C., washed four times, incubated with 2 ug/ml HRP conjugated anti-β2m for 1 h at 37° C., washed again and detected with TMB solution that is stopped with […]. Absorption was measured at 450 nm. Candidate peptides that show a high exchange yield (preferably higher than 50%, most preferred higher than 75%) are generally preferred for a generation and production of antibodies or fragments thereof, and/or T cell receptors or fragments thereof, as they show sufficient avidity to the MHC molecules and prevent dissociation of the MHC complexes.

Substance	Peptide exchange
3 (TASAITPSV; listed as Homo sapiens) [compound 3]	+++ (≥50 = +++)
7 (SIFEGLLSGV; listed as Homo sapiens) [compound 7]	++ (≥20% = ++)
8 (ALLDGGSEAYWRV; listed as Homo sapiens) [compound 8]	+++ (≥50 = +++)
9 (HLIAEIHTA; listed as Homo sapiens) [compound 9]	+++ (≥50 = +++)
10 (SLDENSDQQV; listed as Homo sapiens) [compound 10]	+++ (≥50 = +++)
11 (ALWLPTDSATV; listed as Homo sapiens) [compound 11]	+++ (≥50 = +++)
13 (SLSPVILGV; listed as Homo sapiens) [compound 13]	++++ (≥75% = ++++)
14 (RLPNAGTQV; listed as Homo sapiens) [compound 14]	++++ (≥75% = ++++)
15 (LLANGVYAA; listed as Homo sapiens) [compound 15]	+ (≥10% = +)
16 (VLAEGGEGV; listed as Homo sapiens) [compound 16]	+++ (≥50 = +++)
17 (MISRTPEV; listed as Homo sapiens) [compound 17]	++ (≥20% = ++)
18 (FLLDQVQLGL; listed as Homo sapiens) [compound 18]	+++ (≥50 = +++)
21 (IVREFLTAL; listed as Homo sapiens) [compound 21]	+++ (≥50 = +++)
22 (KLNDTYVNV; listed as Homo sapiens) [compound 22]	+++ (≥50 = +++)
23 (KLSDSATYL; listed as Homo sapiens) [compound 23]	+++ (≥50 = +++)
24 (LLFAGTMTV; listed as Homo sapiens) [compound 24]	++ (≥20% = ++)
25 (LLPPPPPPA; listed as Homo sapiens) [compound 25]	+++ (≥50 = +++)
26 (MLAEKLLQA; listed as Homo sapiens) [compound 26]	+ (≥10% = +)
27 (NLREGDQLL; listed as Homo sapiens) [compound 27]	+++ (≥50 = +++)
28 (SLDGFTIQV; listed as Homo sapiens) [compound 28]	++ (≥20% = ++)
30 (SLNGNQVTV; listed as Homo sapiens) [compound 30]	+ (≥10% = +)
31 (VLPKLYVKL; listed as Homo sapiens) [compound 31]	++ (≥20% = ++)
32 (YMLDIFHEV; listed as Homo sapiens) [compound 32]	++ (≥20% = ++)
33 (GLDVTSLRPFDL; listed as Homo sapiens) [compound 33]	+++ (≥50 = +++)
34 (SLVSEQLEPA; listed as Homo sapiens) [compound 34]	+++ (≥50 = +++)
35 (LLRFSQDNA; listed as Homo sapiens) [compound 35]	+++ (≥50 = +++)
36 (FLLRFSQDNA; listed as Homo sapiens) [compound 36]	++ (≥20% = ++)
37 (YTQPFSHYGQAL; listed as Homo sapiens) [compound 37]	+++ (≥50 = +++)
38 (IAAIRGFLV; listed as Homo sapiens) [compound 38]	+++ (≥50 = +++)
39 (LVRDTQSGSL; listed as Homo sapiens) [compound 39]	++ (≥20% = ++)

Other lines, results leading:

Peptide exchange	Substance
++ (≥20% = ++)	40 (GLAFSLYQA; listed as Homo sapiens) [compound 40]
++ (≥20% = ++)	41 (GLESEELEPEEL; listed as Homo sapiens) [compound 41]
+ (≥10% = +)	42 (TQTAVITRI; listed as Homo sapiens) [compound 42]
+ (≥10% = +)	43 (KVVGKDYLL; listed as Homo sapiens) [compound 43]
+++ (≥50 = +++)	44 (ATGNDRKEAAENSL; listed as Homo sapiens) [compound 44]
++ (≥20% = ++)	45 (MLTELEKAL; listed as Homo sapiens) [compound 45]
+++ (≥50 = +++)	46 (YTAQIGADIAL; listed as Homo sapiens) [compound 46]
++ (≥20% = ++)	48 (SMHQMLDQTL; listed as Homo sapiens) [compound 48]
+++ (≥50 = +++)	49 (GLMKDIVGA; listed as Homo sapiens) [compound 49]
++ (≥20% = ++)	51 (KLFGHLTSA; listed as Homo sapiens) [compound 51]
++ (≥20% = ++)	52 (VAIGGVDGNVRL; listed as Homo sapiens) [compound 52]
++ (≥20% = ++)	53 (VVVTGLTLV; listed as Homo sapiens) [compound 53]
+++ (≥50 = +++)	54 (YQDLLNVKM; listed as Homo sapiens) [compound 54]
++ (≥20% = ++)	55 (GAIDLLHNV; listed as Homo sapiens) [compound 55]
++ (≥20% = ++)	56 (ALVEVTEHV; listed as Homo sapiens) [compound 56]
+++ (≥50 = +++)	57 (GLAPNTPGKA; listed as Homo sapiens) [compound 57]
++ (≥20% = ++)	58 (LILESIPVV; listed as Homo sapiens) [compound 58]
+++ (≥50 = +++)	59 (SLLDTLREV; listed as Homo sapiens) [compound 59]
++ (≥20% = ++)	60 (VVMEELLKV; listed as Homo sapiens) [compound 60]
+++ (≥50 = +++)	61 (TQTTHELTI; listed as Homo sapiens) [compound 61]
++ (≥20% = ++)	62 (ALYEYQPLQI; listed as Homo sapiens) [compound 62]
+++ (≥50 = +++)	63 (LAYTLGVKQL; listed as Homo sapiens) [compound 63]

Peptide exchange	Substance
++++ (≥75% = ++++)	64 (GLTDVIRDV; listed as Homo sapiens) [compound 64]
+++ (≥50 = +++)	65 (YVVGGFLYQRL; listed as Homo sapiens) [compound 65]
+++ (≥50 = +++)	66 (LLDEKVQSV; listed as Homo sapiens) [compound 66]
++ (≥20% = ++)	67 (SMNGGVFAV; listed as Homo sapiens) [compound 67]
++ (≥20% = ++)	68 (PAVLQSSGLYSL; listed as Homo sapiens) [compound 68]
+++ (≥50 = +++)	70 (FVLDTSESV; listed as Homo sapiens) [compound 70]
+++ (≥50 = +++)	71 (ASDPILYRPVAV; listed as Homo sapiens) [compound 71]
++ (≥20% = ++)	72 (FLPPAQVTV; listed as Homo sapiens) [compound 72]
+++ (≥50 = +++)	73 (KITEAIQYV; listed as Homo sapiens) [compound 73]
+++ (≥50 = +++)	74 (ILASLATSV; listed as Homo sapiens) [compound 74]
+++ (≥50 = +++)	76 (KVADYIPQL; listed as Homo sapiens) [compound 76]
++ (≥20% = ++)	78 (KVANIIAEV; listed as Homo sapiens) [compound 78]
++ (≥20% = ++)	79 (GQDVGRYQV; listed as Homo sapiens) [compound 79]
++ (≥20% = ++)	80 (ALQEALENA; listed as Homo sapiens) [compound 80]
+++ (≥50 = +++)	81 (AVLPHVDQV; listed as Homo sapiens) [compound 81]
+++ (≥50 = +++)	82 (HLLGHLEQA; listed as Homo sapiens) [compound 82]
+++ (≥50 = +++)	83 (ALADGVVSQA; listed as Homo sapiens) [compound 83]
+++ (≥50 = +++)	84 (SLAESLDQA; listed as Homo sapiens) [compound 84]
++++ (≥75% = ++++)	85 (NIIELVHQV; listed as Homo sapiens) [compound 85]
+++ (≥50 = +++)	87 (FLDNGPKTI; listed as Homo sapiens) [compound 87]
++ (≥20% = ++)	89 (SLADSLYNL; listed as Homo sapiens) [compound 89]
+++ (≥50 = +++)	90 (SIYEYYHAL; listed as Homo sapiens) [compound 90]
